Experimental data as given in the supplement of paper PMC10567573.

B1: KLHL14 (parent)
chain: WLYCYDPVMDVWARKQDMNTKRAI

Variants of: B1
Experiment: protein stability index of a GFP-peptide fusion (GPS, HEK-293T) (PSI 1-6); higher = more stable
Details: c terminus: a fixed tail appended
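Also: lentivirally expressed fusions sorted by FACS into six bins by GFP to DsRed ratio, PSI derived from sequencing read proportions per bin multiplied by bin number.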

Row | Variant | protein stability index
1 | WLYCYYPVMDVWARKQDMNTKRAI [D6Y] | 2.54
2 | WLYCYDPVDDVWARKQDMNTKRAI [M9D] | 1.92
3 | WLYCYDPVGDVWARKQDMNTKRAI [M9G] | 1.77
4 | WLYCYDPVYDVWARKQDMNTKRAI [M9Y] | 2.01
5 | WLYCYDPVHDVWARKQDMNTKRAI [M9H] | 2.24
6 | WLYCYDPVSDVWARKQDMNTKRAI [M9S] | 2.26
7 | WLYCYDPVEDVWARKQDMNTKRAI [M9E] | 1.74
8 | WLYCYDPVNDVWARKQDMNTKRAI [M9N] | 2.18
9 | WLYCYDPVRDVWARKQDMNTKRAI [M9R] | 2.09
10 | WLYCYDPVADVWARKQDMNTKRAI [M9A] | 2.62
11 | WLYCYDPVFDVWARKQDMNTKRAI [M9F] | 1.62
12 | WLYCYDPVTDVWARKQDMNTKRAI [M9T] | 2.55
13 | WLYCYDPVQDVWARKQDMNTKRAI [M9Q] | 2.6
14 | WLYCYDPVCDVWARKQDMNTKRAI [M9C] | 2.35
15 | WLYCYDPVVDVWARKQDMNTKRAI [M9V] | 1.65
16 | WLYCYDPVWDVWARKQDMNTKRAI [M9W] | 1.64
17 | WLYCYDPVKDVWARKQDMNTKRAI [M9K] | 2.02
18 | WLYCYDPVPDVWARKQDMNTKRAI [M9P] | 2.32
19 | WLYCYDPVIDVWARKQDMNTKRAI [M9I] | 1.9
20 | WLYCYDPVLDVWARKQDMNTKRAI [M9L] | 2.17
21 | WLYEYDPVMDVWARKQDMNTKRAI [C4E] | 2.41
22 | WLYVYDPVMDVWARKQDMNTKRAI [C4V] | 2.08
23 | WLYAYDPVMDVWARKQDMNTKRAI [C4A] | 2.34
24 | WLYGYDPVMDVWARKQDMNTKRAI [C4G] | 2.58

Row | Variant | protein stability index
25 | WLYWYDPVMDVWARKQDMNTKRAI [C4W] | 2.35
26 | WLYYYDPVMDVWARKQDMNTKRAI [C4Y] | 2.13
27 | WLYHYDPVMDVWARKQDMNTKRAI [C4H] | 2.6
28 | WLYFYDPVMDVWARKQDMNTKRAI [C4F] | 1.94
29 | WLYQYDPVMDVWARKQDMNTKRAI [C4Q] | 2.31
30 | WLYRYDPVMDVWARKQDMNTKRAI [C4R] | 1.63
31 | WLYKYDPVMDVWARKQDMNTKRAI [C4K] | 2.04
32 | WLYPYDPVMDVWARKQDMNTKRAI [C4P] | 2.51
33 | WLYMYDPVMDVWARKQDMNTKRAI [C4M] | 1.89
34 | WLYDYDPVMDVWARKQDMNTKRAI [C4D] | 2.06
35 | WLYNYDPVMDVWARKQDMNTKRAI [C4N] | 2.5
36 | WLYIYDPVMDVWARKQDMNTKRAI [C4I] | 1.96
37 | WLYSYDPVMDVWARKQDMNTKRAI [C4S] | 2.14
38 | WLYLYDPVMDVWARKQDMNTKRAI [C4L] | 1.61
39 | WLYTYDPVMDVWARKQDMNTKRAI [C4T] | 2.84
40 | WLYCYDPVMDNWARKQDMNTKRAI [V11N] | 2.21
41 | WLYCYDPVMDHWARKQDMNTKRAI [V11H] | 1.61
42 | WLYCYDPVMDAWARKQDMNTKRAI [V11A] | 1.93
43 | WLYCYDPVMDLWARKQDMNTKRAI [V11L] | 2.04
44 | WLYCYDPVMDMWARKQDMNTKRAI [V11M] | 1.61
45 | WLYCYDPVMDYWARKQDMNTKRAI [V11Y] | 1.92
46 | WLYCYDPVMDEWARKQDMNTKRAI [V11E] | 2.3
47 | WLYCYDPVMDQWARKQDMNTKRAI [V11Q] | 1.98
48 | WLYCYDPVMDRWARKQDMNTKRAI [V11R] | 2.1

Row | Variant | protein stability index
49 | WLYCYDPVMDPWARKQDMNTKRAI [V11P] | 1.65
50 | WLYCYDPVMDGWARKQDMNTKRAI [V11G] | 1.62
51 | WLYCYDPVMDTWARKQDMNTKRAI [V11T] | 2.32
52 | WLYCYDPVMDDWARKQDMNTKRAI [V11D] | 1.98
53 | WLYCYDPVMDWWARKQDMNTKRAI [V11W] | 1.76
54 | WLYCYDPVMDIWARKQDMNTKRAI [V11I] | 1.43
55 | WLYCYDPVMDKWARKQDMNTKRAI [V11K] | 1.95
56 | WLYCYDPVMDCWARKQDMNTKRAI [V11C] | 1.91
57 | WLYCYDPVMDSWARKQDMNTKRAI [V11S] | 2.52
58 | WLYCYDPVMDFWARKQDMNTKRAI [V11F] | 2.32
59 | WLACYDPVMDVWARKQDMNTKRAI [Y3A] | 2.02
60 | WLKCYDPVMDVWARKQDMNTKRAI [Y3K] | 2.09
61 | WLSCYDPVMDVWARKQDMNTKRAI [Y3S] | 1.77
62 | WLMCYDPVMDVWARKQDMNTKRAI [Y3M] | 1.96
63 | WLCCYDPVMDVWARKQDMNTKRAI [Y3C] | 2.64
64 | WLNCYDPVMDVWARKQDMNTKRAI [Y3N] | 2.12
65 | WLWCYDPVMDVWARKQDMNTKRAI [Y3W] | 2.42
66 | WLPCYDPVMDVWARKQDMNTKRAI [Y3P] | 2.7
67 | WLRCYDPVMDVWARKQDMNTKRAI [Y3R] | 1.25
68 | WLICYDPVMDVWARKQDMNTKRAI [Y3I] | 2.06
69 | WLHCYDPVMDVWARKQDMNTKRAI [Y3H] | 2.22
70 | WLQCYDPVMDVWARKQDMNTKRAI [Y3Q] | 1.97
71 | WLTCYDPVMDVWARKQDMNTKRAI [Y3T] | 2.36
72 | WLECYDPVMDVWARKQDMNTKRAI [Y3E] | 2.33

Row | Variant | protein stability index
73 | WLLCYDPVMDVWARKQDMNTKRAI [Y3L] | 2.15
74 | WLFCYDPVMDVWARKQDMNTKRAI [Y3F] | 1.65
75 | WLGCYDPVMDVWARKQDMNTKRAI [Y3G] | 2.01
76 | WLVCYDPVMDVWARKQDMNTKRAI [Y3V] | 2.86
77 | WLDCYDPVMDVWARKQDMNTKRAI [Y3D] | 2.44
78 | WLYCYDIVMDVWARKQDMNTKRAI [P7I] | 1.93
79 | WLYCYDYVMDVWARKQDMNTKRAI [P7Y] | 2.15
80 | WLYCYDHVMDVWARKQDMNTKRAI [P7H] | 2.1
81 | WLYCYDTVMDVWARKQDMNTKRAI [P7T] | 1.64
82 | WLYCYDFVMDVWARKQDMNTKRAI [P7F] | 3.12
83 | WLYCYDKVMDVWARKQDMNTKRAI [P7K] | 2.24
84 | WLYCYDDVMDVWARKQDMNTKRAI [P7D] | 2.28
85 | WLYCYDAVMDVWARKQDMNTKRAI [P7A] | 2.87
86 | WLYCYDCVMDVWARKQDMNTKRAI [P7C] | 2.33
87 | WLYCYDMVMDVWARKQDMNTKRAI [P7M] | 1.98
88 | WLYCYDEVMDVWARKQDMNTKRAI [P7E] | 1.88
89 | WLYCYDSVMDVWARKQDMNTKRAI [P7S] | 1.62
90 | WLYCYDNVMDVWARKQDMNTKRAI [P7N] | 1.84
91 | WLYCYDQVMDVWARKQDMNTKRAI [P7Q] | 1.51
92 | WLYCYDRVMDVWARKQDMNTKRAI [P7R] | 1.87
93 | WLYCYDVVMDVWARKQDMNTKRAI [P7V] | 2.08
94 | WLYCYDGVMDVWARKQDMNTKRAI [P7G] | 1.94
